Measurements reported in publication PMC9929924, “Phosphorylation of the receptor protein Pex5p modulates import of proteins into peroxisomes” (Biological Chemistry, 2022).

How the values were obtained:
[1] = Thermal unfolding by circular dichroism and nano-differential scanning fluorimetry; type: physicochemical; conditions: circular dichroism thermal ramping (20-70 °C, 220 nm) and nanoDSF (0.35 mg ml^−1, 1 °C min^−1); 25 mM phosphate pH 7.5, 150 mM NaF; triplicates
Method: Thermal unfolding coupled to CD was performed between 20 °C and 70 °C with a measure in triplicate every 5 °C increment. Millidegree values at 220 nm were plotted against their temperature and the melting temperature calculated using a Boltzmann sigmoidal equation.
Melting temperatures were measured by Nano differential scanning fluorimetry using a Prometheus NT.48 (Nanotemper). Tryptophan intrinsic fluorescence emission was recorded at 330 and 350 nm with 30% excitation power during thermal ramping from 20 to 90 °C (1 °C min^−1). 10 μl of proteins in 25 mM phosphate buffer (pH 7.5), 150 mM NaF and at a concentration of 0.35 mg ml^−1 were loaded in nanoDSF grade standard capillaries. Samples were measured in triplicates and the calculated melting temperatures averaged. Melting temperature were calculated by the software PR.ThermControl.

[2] = tested on: GFP-SKL import in pex5Δ yeast cells; experiment: Fluorescence microscopy, import of GFP-SKL in cells expressing Pex5p variants; type: cell-based, S. cerevisiae; conditions: pex5Δ cells expressing plasmid-encoded Pex5p variant and GFP-SKL, grown in oleate
Method: Cells expressing distinct Pex5p variants (wildtype, Pex5p^2A or Pex5p^2D) and GFP-SKL were grown overnight in 50 ml YNO medium supplemented with 0.1% (w/v) glucose to an OD600 of 1–1.5. Aliquots of 5.4 ml were taken and formaldehyde was added to a final concentration of 3.7% (v/v). Samples were incubated for 10 min at RT with slight agitation. Cells were collected by centrifugation (5 min at 2000 g), resuspended in 1 ml of 0.1 M potassium phosphate buffer (pH 6.8) containing 3.7% (v/v) formaldehyde and incubated for 1 h at RT with slight agitation. Following centrifugation (30 s at 16,000 g), cells were resuspended in 1 ml of 0.1 M potassium phosphate buffer (pH 6.8) containing 10 mM ethanolamine and incubated for further 10 min at RT. Subsequently, cells were washed twice with phosphate-buffered saline (PBS) and resuspended in 10–20 µl of PBS containing 0.1% (v/v) Triton X-100. Fixed cells were analyzed within 48 h after preparation.
Fluorescence microscopy was performed using a Zeiss Axio Observer.Z1 microscope equipped with an alpha Plan-Aprochromat 100× objective and an AxioCam MR R3. GFP signal was visualized with a 38 HE filterset from Zeiss. Images were processed using Adobe Photoshop CS5 (version 12.0.4 ×64; Adobe Systems Incorporated). To document the structural integrity of cells, bright field images were acquired, adjusted in a way that only the cell boundaries were visible and subsequently added into the blue channel in Photoshop as reported before ([Motley and Hettema 2007]).

yeast cells = experiment: Growth of yeast cells expressing Pex5p variants; type: cell-based, S. cerevisiae; conditions: n = 3; for growth in oleate: oleate as sole carbon source (YNO medium)
Excerpt: Synthetic complete (SC) medium consisted of 0.17% (w/v) yeast nitrogen base (YNB) without amino acids, 0.5% (w/v) ammonium sulfate, and 0.3% (w/v) glucose (pH 6.0) supplemented with appropriate amino acids ([Schummer et al. 2017]). YNO medium contained 0.1% (v/v) oleic acid, 0.05% (v/v) Tween 40, 0.5% (w/v) ammonium sulfate, and 0.17% (w/v) yeast nitrogen base without amino acids, adjusted to pH 6.0 and supplemented with appropriate amino acids. For growth under peroxisome-proliferating conditions, cells were cultured at 30 °C in SC medium until they reached an optical density at 600 nm (OD600) of 1–1.5 and then shifted to YNO medium to induce peroxisome proliferation. Cells were grown for further 12–16 h or as indicated. For growth of cells in glucose medium, SC medium was supplemented with 2% (w/v) glucose.

B1: Pex5p^WT: Pex5p wildtype, PTS1 receptor of S. cerevisiae (protein)
chain: MDVGSCSVGNNPLAQLHKHTQQNKSLQFNQKNNGRLNESPLQGTNKPGISEAFISNVNAISQENMANMQRFINGEPLIDDKRRMEIGPSSGRLPPFSNVHSLQTSANPTQIKGVNDISHWSQEFQGSNSIQNRNADTGNSEKAWQRGSTTASSRFQYPNTMMNNYAYASMNSLSGSRLQSPAFMNQQQSGRSKEGVNEQEQQPWTDQFEKLEKEVSENLDINDEIEKEENVSEVEQNKPETVEKEEGVYGDQYQSDFQEVWDSIHKDAEEVLPSELVNDDLNLGEDYLKYLGGRVNGNIEYAFQSNNEYFNNPNAYKIGCLLMENGAKLSEAALAFEAAVKEKPDHVDAWLRLGLVQTQNEKELNGISALEECLKLDPKNLEAMKTLAISYINEGYDMSAFTMLDKWAETKYPEIWSRIKQQDDKFQKEKGFTHIDMNAHITKQFLQLANNLSTIDPEIQLCLGLLFYTKDDFDKTIDCFESALRVNPNDELMWNRLGASLANSNRSEEAIQAYHRALQLKPSFVRARYNLAVSSMNIGCFKEAAGYLLSVLSMHEVNTNNKKGDVGSLLNTYNDTVIETLKRVFIAMNRDDLLQEVKPGMDLKRFKGEFSF
modifications: left off: His6, N-terminal, state not stated
notes: Pex5p wildtype, PTS1 receptor of S. cerevisiae
[1]
  melting temperature: approximately 46 °C
[2]
  subcellular distribution of GFP-SKL: import of GFP-SKL is restored
[2]; listed as Pex5p^2A
  subcellular distribution of GFP-SKL: no import phenotype
[2]; listed as Pex5p^2D
  subcellular distribution of GFP-SKL: both a punctate staining and diffuse cytosolic fluorescence, suggesting a reduced import of GFP-SKL into peroxisomes
Yeast cells; SC medium containing 2% glucose, compared to Pex5p^WT cells
  growth on glucose: equivalent to Pex5p^WT cells
Yeast cells; listed as Pex5p^2A
  growth in oleate: grew similar to wildtype cells in oleate
Yeast cells; listed as Pex5p^2D
  growth in oleate: significant growth defect
